Measured values reported in patent US20240083953A1 (University of Washington, published 2024).
Residue numbers refer to the chain shown, from its start. Names and notes keep the numbering of the source. Like-named read-outs stand apart in the source and are kept apart here.

Tests used:
[1] = target: DSG2 on human cells (HeLa, T84) (human) (UniProt Q14126); assay: cell-based or functional assay
[2] = target: DSG2 on human cells (HeLa, T84) (human) (UniProt Q14126); assay: competition with 3H-labelled Ad3 virus for attachment to HeLa cells
[3] = target: T1, Soluble CD46 (UniProt P15529 35-343); assay: Western blot, soluble CD46 as probe, anti-CD46 mAb
T1 construct: also called sCD46
T1 sequence: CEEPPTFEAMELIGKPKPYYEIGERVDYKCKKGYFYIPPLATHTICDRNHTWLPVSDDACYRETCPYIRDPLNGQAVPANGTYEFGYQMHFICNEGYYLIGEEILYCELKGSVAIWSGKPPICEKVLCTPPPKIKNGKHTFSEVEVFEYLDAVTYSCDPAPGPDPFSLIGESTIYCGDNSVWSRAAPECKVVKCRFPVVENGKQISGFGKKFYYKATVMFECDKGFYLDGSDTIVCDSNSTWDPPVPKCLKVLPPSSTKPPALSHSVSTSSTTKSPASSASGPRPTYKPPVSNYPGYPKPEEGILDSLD

[4] = target: T2, Recombinant human DSG2 protein (desmoglein 2), soluble (human, UniProt Q14126 50-609); assay: Western blot of the blotted knob protein probed with soluble human DSG2, anti-DSG2 mAb 6D8 and HRP-anti-mouse IgG
T2 construct: also called soluble DSG2; soluble recombinant DSG2
T2 sequence: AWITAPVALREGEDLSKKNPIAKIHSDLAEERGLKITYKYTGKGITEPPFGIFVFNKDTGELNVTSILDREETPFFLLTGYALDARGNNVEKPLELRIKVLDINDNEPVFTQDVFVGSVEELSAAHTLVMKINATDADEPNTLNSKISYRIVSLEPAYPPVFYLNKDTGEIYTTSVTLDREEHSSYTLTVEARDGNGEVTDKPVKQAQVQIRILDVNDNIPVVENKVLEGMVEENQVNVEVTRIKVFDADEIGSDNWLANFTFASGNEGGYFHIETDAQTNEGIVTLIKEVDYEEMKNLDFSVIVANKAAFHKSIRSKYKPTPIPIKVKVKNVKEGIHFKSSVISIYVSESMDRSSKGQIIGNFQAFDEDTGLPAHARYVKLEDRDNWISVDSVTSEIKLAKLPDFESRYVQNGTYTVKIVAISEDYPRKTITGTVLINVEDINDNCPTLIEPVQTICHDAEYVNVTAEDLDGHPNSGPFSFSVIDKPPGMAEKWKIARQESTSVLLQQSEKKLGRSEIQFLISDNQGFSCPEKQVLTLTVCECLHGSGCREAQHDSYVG

[5] = target: T3, DSG2 on human cells (HeLa, T84) (human, UniProt Q14126 50-1118); assay: cell-based or functional assay
T3 sequence: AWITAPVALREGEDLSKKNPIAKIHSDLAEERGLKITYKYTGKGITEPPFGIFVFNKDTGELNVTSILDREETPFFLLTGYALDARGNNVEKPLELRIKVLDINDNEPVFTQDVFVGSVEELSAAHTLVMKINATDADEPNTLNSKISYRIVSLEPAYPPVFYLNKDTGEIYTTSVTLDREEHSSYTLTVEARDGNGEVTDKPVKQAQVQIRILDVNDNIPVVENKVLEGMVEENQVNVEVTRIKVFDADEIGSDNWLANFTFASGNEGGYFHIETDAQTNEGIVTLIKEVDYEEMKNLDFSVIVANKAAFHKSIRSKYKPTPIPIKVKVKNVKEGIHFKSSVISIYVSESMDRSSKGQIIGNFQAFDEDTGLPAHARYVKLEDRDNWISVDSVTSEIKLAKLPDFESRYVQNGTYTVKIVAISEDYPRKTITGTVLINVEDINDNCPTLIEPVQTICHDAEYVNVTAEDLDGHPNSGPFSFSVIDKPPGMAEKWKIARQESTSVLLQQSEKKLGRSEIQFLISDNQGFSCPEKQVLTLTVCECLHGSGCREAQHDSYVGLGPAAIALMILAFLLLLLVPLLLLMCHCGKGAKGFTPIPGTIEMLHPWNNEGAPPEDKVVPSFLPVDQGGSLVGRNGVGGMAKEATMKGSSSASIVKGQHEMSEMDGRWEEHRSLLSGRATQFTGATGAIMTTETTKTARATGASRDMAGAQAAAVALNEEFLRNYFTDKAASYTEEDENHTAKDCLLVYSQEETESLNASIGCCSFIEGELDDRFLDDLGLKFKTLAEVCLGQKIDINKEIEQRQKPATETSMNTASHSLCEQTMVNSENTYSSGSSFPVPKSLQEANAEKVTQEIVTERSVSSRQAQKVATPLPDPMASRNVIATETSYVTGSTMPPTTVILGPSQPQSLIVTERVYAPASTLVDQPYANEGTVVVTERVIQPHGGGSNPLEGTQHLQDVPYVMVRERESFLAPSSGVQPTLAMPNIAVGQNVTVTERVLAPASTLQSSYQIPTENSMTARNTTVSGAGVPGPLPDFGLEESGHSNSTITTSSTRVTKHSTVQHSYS

[6] = target: T2, Recombinant human DSG2 protein …; assay: SPR, DSG2 immobilised; the filing's constants were got with the knobs without dimerization domain, so the value is set on V239D/noDD
[7] = target: T2, Recombinant human DSG2 protein …; assay: SPR, DSG2 immobilised; the filing's constants were got with the knobs without dimerization domain, so the value is set on Y250F/noDD
[8] = target: T3, DSG2 on human cells (HeLa, T84); assay: cell-based or functional assay; remark: listed apart in the source
[9] = target: T3, DSG2 on human cells (HeLa, T84); assay: cell-based or functional assay; remark: listed apart in the source
[10] = target: T2, Recombinant human DSG2 protein …; assay: Western blot of dimeric knob, soluble DSG2 as probe

“Dimeric Ad3 fiber knob mutant N186D, D261N, L296R (ligand)” showed an Inhibition of infection in the presence of dimeric knob (JO-1 = 100%) [1] of 0% and an Inhibition of attachment in the presence of dimeric knob (JO-1 = 100%) [2] of 18.5%.

“Dimeric Ad3 fiber knob mutant D261N, L296R (ligand)” was tested, and the Inhibition of infection in the presence of dimeric knob (JO-1 = 100%) [1] was 1.5% and the Inhibition of attachment in the presence of dimeric knob (JO-1 = 100%) [2] was 20.1%.

B1: Ad3-S/Kn (ligand)
chain: SIALKNNTLWTGPKPEANCIIEYGKQNPDSKLTLILVKNGGIVNGYVTLMGASDYVNTLFKNKNVSINVELYFDATGHILPDSSSLKTDLELKYKQTADFSARGFMPSTTAYPFVLPNAGTHNENYIFGQCYYKASDGALFPLEVTVMLNKRLPDSRTSYVMTFLWSLNAGLAPETTQATLITSPFTFSYIREDD
B1: no binding [3]; no binding [4].

B2: Ad3-S6/Kn (ligand)
chain: NGVLSLKCVNPLTTASGSLQLKVGSGLTVDTTDGSLEENIKVNTPLTKSNHSINLPIGNGLQIEQNKLCSKLGNGLTFDSSNSIALKNNTLWTGPKPEANCIIEYGKQNPDSKLTLILVKNGGIVNGYVTLMGASDYVNTLFKNKNVSINVELYFDATGHILPDSSSLKTDLELKYKQTADFSARGFMPSTTAYPFVLPNAGTHNENYIFGQCYYKASDGALFPLEVTVMLNKRLPDSRTSYVMTFLWSLNAGLAPETTQATLITSPFTFSYIREDD
notes: also called Ad3 fiber knob with six shaft motifs
B2: no binding [3].

B3: Ad3 fiber knob mutant V239D without dimerization domain (ligand)
chain: NKLCSKLGNGLTFDSSNSIALKNNTLWTGPKPEANCIIEYGKQNPDSKLTLILVKNGGIVNGYVTLMGASDYVNTLFKNKNVSINVELYFDATGHILPDSSSLKTDLELKYKQTADFSARGFMPSTTAYPFDLPNAGTHNENYIFGQCYYKASDGALFPLEVTVMLNKRLPDSRTSYVMTFLWSLNAGLAPETTQATLITSPFTFSYIREDD
notes: range 108-319; also called V239D/noDD; not shown: N-terminal 6-His tag of pQE30 and a Gly/Ser linker coded by primer P1
With B3 the “IC50 (read off the curve): inhibition of Ad3-GFP infection of HeLa cells, MFI of GFP” value [5] was about 4 µg/mL and the Kd [6] was 24.9 nM.

B4: Ad3 fiber knob mutant Y250F without dimerization domain (ligand)
chain: B3 chain with D132V, Y143F
notes: range 108-319; also called Y250F/noDD; not shown: N-terminal 6-His tag of pQE30 and a Gly/Ser linker coded by primer P1
In the case of B4, the Kd [7] is reported as 11.4 nM.

B5: JO-1 (dimeric wild-type Ad3 fiber knob) (ligand)
chain: MKVSALKEKVSALKEKVSALKEKVSALKEKVSALKEGSGGGSGGGSGGGSNSIALKNNTLWTGPKPEANCIIEYGKQNPDSKLTLILVKNGGIVNGYVTLMGASDYVNTLFKNKNVSINVELYFDATGHILPDSSSLKTDLELKYKQTADFSARGFMPSTTAYPFVLPNAGTHNENYIFGQCYYKASDGALFPLEVTVMLNKRLPDSRTSYVMTFLWSLNAGLAPETTQATLITSPFTFSYIREDD
notes: also called dimeric wt Ad3 fiber knob; dimeric wtAd3 knob
With B5 the “IC50 (read off the curve): inhibition of Ad3-GFP infection of HeLa cells, % GFP-positive cells” value [8] was about 5 µg/mL, the “IC50 (read off the curve): inhibition of Ad3-GFP infection of HeLa cells, MFI of GFP” value [9] was about 0.6 µg/mL and the binding result [3] was “no binding”.

B6: Dimeric Ad3 fiber knob mutant N186D, D261N, L296R (ligand)
chain: B5 chain with N113D, D188N, L223R
notes: also called mutant with mutations in all three areas (N185, D261, L296)
B6: no binding [10].
